From US20210024620A1

Tests used:
[1] = target: Human CD16a (FcγRIIIa V158) with C-terminal HPC4 tag (human) (UniProt P08637); assay: Biacore, FcγRIIIa V158 captured, steady-state fit, apparent KD
[2] = target: biotinylated human FcRn (human) (UniProt P55899); assay: Biacore SPR, pH 7.4
[3] = target: rat FcRn (rat) (UniProt P13599); assay: Biacore SPR, pH 7.4
[4] = target: Human CD16a (FcγRIIIa V158) with C-terminal HPC4 tag (human) (UniProt P08637); assay: Biacore SPR, FcγRIIIa-V158 captured, pH 7.4
[5] = target: biotinylated human FcRn (human) (UniProt P55899); assay: Biacore SPR, pH 6.0
[6] = target: biotinylated human FcRn (p51 subunit residues 24-297 with C-terminal Avi-tag; beta2-microglobulin residues 21-119) (human) (UniProt P55899); assay: Biacore SPR, pH 6.0
[7] = target: rat FcRn (rat) (UniProt P13599); assay: Biacore SPR, pH 6.0
[8] = target: biotinylated human FcRn (p51 subunit residues 24-297 with C-terminal Avi-tag; beta2-microglobulin residues 21-119) (human) (UniProt P55899); assay: Biacore; affinity at pH 6.0 (M^-1) over steady state RU at pH 7.4
[9] = target: biotinylated human FcRn (human) (UniProt P55899); assay: Biacore, pH 7.4, steady state response
[10] = target: rat FcRn (rat) (UniProt P13599); assay: Biacore, pH 7.4, steady state response
[11] = target: biotinylated human FcRn (human) (UniProt P55899); assay: Biacore SPR, pH 7.4, 1000 nM antibody
[12] = target: rat FcRn (rat) (UniProt P13599); assay: Biacore SPR, pH 7.4, 1000 nM antibody
[13] = target: rat FcRn (rat) (UniProt P13599); assay: Octet BLI, pH 6.0
[14] = target: biotinylated human FcRn (human) (UniProt P55899); assay: Biacore, pH 6.0, apparent KD
[15] = target: rat FcRn (rat) (UniProt P13599); assay: Biacore, pH 6.0, apparent KD
[16] = target: biotinylated human FcRn (human) (UniProt P55899); assay: Biacore, pH 6.0
[17] = target: rat FcRn (rat) (UniProt P13599); assay: Biacore, pH 6.0
[18] = target: biotinylated human FcRn (human) (UniProt P55899); assay: Biacore SPR, pH 6.0; remark: listed apart in the source
[19] = target: FcRn immobilised on the FcRn affinity column (biotinylated cynoFcRn in one experiment, biotinylated hFcRn in another); assay: FcRn affinity chromatography, linear pH gradient; species of the immobilised FcRn not given
[20] = target: biotinylated human FcRn (human) (UniProt P55899); assay: Biacore SPR, pH 7.4; remark: listed apart in the source
[21] = target: biotinylated human FcRn (p51 subunit residues 24-297 with C-terminal Avi-tag; beta2-microglobulin residues 21-119) (human) (UniProt P55899); assay: Biacore SPR, pH 7.4, steady state
[22] = target: biotinylated human FcRn (p51 subunit residues 24-297 with C-terminal Avi-tag; beta2-microglobulin residues 21-119) (human) (UniProt P55899); assay: Biacore; inverse ratio (RU at pH 7.4 over affinity at pH 6.0)
[23] = target: rat FcRn (rat) (UniProt P13599); assay: Octet BLI screen, pH 6.0
[24] = target: Human CD16a (FcγRIIIa V158) with C-terminal HPC4 tag (human) (UniProt P08637); assay: Biacore SPR, FcγRIIIa

Chain of Human CD16a (FcγRIIIa V158) with C-terminal HPC4 tag (human) (P08637 17-208 F176V): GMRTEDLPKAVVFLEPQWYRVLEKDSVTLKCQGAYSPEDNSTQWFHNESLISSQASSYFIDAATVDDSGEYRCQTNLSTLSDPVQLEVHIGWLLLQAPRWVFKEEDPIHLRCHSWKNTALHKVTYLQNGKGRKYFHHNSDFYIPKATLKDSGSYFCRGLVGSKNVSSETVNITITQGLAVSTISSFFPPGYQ
Chain of biotinylated human FcRn (human) (P55899 24-297 limits assumed, chain 1 of 2): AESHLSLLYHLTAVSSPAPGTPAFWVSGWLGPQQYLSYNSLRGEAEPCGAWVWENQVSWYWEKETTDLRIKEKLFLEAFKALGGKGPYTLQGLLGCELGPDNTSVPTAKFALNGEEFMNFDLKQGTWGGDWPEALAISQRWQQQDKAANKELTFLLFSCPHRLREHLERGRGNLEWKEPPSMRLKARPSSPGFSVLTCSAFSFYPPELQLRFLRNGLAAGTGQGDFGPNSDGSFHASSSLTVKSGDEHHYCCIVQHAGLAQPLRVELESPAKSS
Chain of biotinylated human FcRn (human) (P61769 21-119 limits assumed, chain 2 of 2, further chain): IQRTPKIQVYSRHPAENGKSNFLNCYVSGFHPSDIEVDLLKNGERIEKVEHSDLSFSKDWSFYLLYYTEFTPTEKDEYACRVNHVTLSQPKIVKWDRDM
Chain of biotinylated human FcRn (p51 subunit residues 24-297 with C-terminal Avi-tag; beta2-microglobulin residues 21-119) (human) (P55899 24-297 limits assumed, chain 1 of 2): as the sequence (P55899 24-297 limits assumed, chain 1 of 2) above
Chain of biotinylated human FcRn (p51 subunit residues 24-297 with C-terminal Avi-tag; beta2-microglobulin residues 21-119) (human) (P61769 21-119 limits assumed, chain 2 of 2, further chain): as the sequence (P61769 21-119 limits assumed, chain 2 of 2, further chain) above
Chain of rat FcRn (rat) (P13599 23-298 limits assumed, chain 1 of 2): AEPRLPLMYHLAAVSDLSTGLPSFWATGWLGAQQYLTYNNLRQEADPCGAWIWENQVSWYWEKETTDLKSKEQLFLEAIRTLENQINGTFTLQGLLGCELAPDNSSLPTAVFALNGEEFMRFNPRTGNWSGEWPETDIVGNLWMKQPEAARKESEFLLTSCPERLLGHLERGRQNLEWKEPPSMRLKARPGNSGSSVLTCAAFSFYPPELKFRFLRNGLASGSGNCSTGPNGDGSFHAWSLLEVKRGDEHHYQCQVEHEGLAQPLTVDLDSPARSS
Chain of rat FcRn (rat) (P07151 21-119 limits assumed, chain 2 of 2, further chain): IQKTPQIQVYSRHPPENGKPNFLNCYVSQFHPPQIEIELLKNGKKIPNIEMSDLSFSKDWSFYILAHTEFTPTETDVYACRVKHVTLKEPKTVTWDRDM

Row | Substance | Kd [1] [nM] | Steady State RU [2] [RU] | Steady State RU [3] [RU] | FcγRIIIa V158 affinity fold change relative to WT [4] [fold] | koff [5] [s⁻¹] | kon [5] [M⁻¹ s⁻¹] | Ka [6] [M⁻¹] | Kd [7] [nM] | koff [7] [s⁻¹] | kon [7] [M⁻¹ s⁻¹] | Ratio (pH 6.0/pH 7.4) [8] | Steady State RU [9] [RU] | Steady State RU [10] [RU] | Steady State RU [11] [RU] | Steady State RU [12] [RU] | koff [13] [s⁻¹] | Kd [15] [nM] | koff [17] [s⁻¹] | kon [17] [M⁻¹ s⁻¹] | FcRn affinity column elution pH [19] [pH] | also measured
1 | mAb1 LS (M428L/N434S) (antibody) | 369 | 18.3 | 24.8 | 1.04 | 0.052 | 193000 | 3.68e+06 | 74 | 0.00658 | 90800 | 201000 | 18.3 | 24.8 | 18.3 | 24.8 | 0.00338 | 74 | 0.0066 | 91000 | 8.29 | Kd [14]: 272 nM; koff [16]: 0.05 s⁻¹; kon [16]: 193000 M⁻¹ s⁻¹; Kd [18]: 272 nM; koff [18]: 0.05 s⁻¹; kon [18]: 190000 M⁻¹ s⁻¹; Steady State RU [20]: 18.5 RU; Steady State Binding, pH 7.4 (RU) [21]: 18.3 RU; Ratio (pH 6.0/pH 7.4) [22]: 4.97e-06
2 | mAb1 N434Y (antibody) |  |  | 66 | 1.41 |  |  |  | 23 | 0.00346 | 145000 |  |  |  |  | 47 | 0.00133 | 23 | 0.0035 | 145000 | 8.46 | fold slower off-rate vs WT [23]: > 2 fold; enhancement of FcγRIIIa binding vs WT [24]: 16 to 40%
3 | mAb1 YTE (M252Y/S254T/T256E) (antibody) | 1040 | 13.2 | 53.9 | 0.52 | 0.045 | 143000 | 2.92e+06 | 18 | 0.00121 | 65200 | 221000 | 13.2 | 53.9 | 13.2 | 53.9 | 0.00066 | 18 | 0.0012 | 65000 | 8.14 | Kd [14]: 342 nM; koff [16]: 0.05 s⁻¹; kon [16]: 143000 M⁻¹ s⁻¹; Kd [18]: 342 nM; koff [18]: 0.047 s⁻¹; kon [18]: 140000 M⁻¹ s⁻¹; Steady State RU [20]: 13.1 RU; Steady State Binding, pH 7.4 (RU) [21]: 13.2 RU; reduction in binding response vs wildtype [24]: 50%
4 | mAb1 N434F (antibody) |  |  | 61.5 |  |  |  |  | 26 |  |  |  |  |  |  | 54.9 |  | 26 |  |  |  | enhancement of FcγRIIIa binding vs WT [24]: 16 to 40%
